Results published in patent US20100317830A1, “BACE455, AN ALTERNATIVE SPLICE VARIANT OF THE HUMAN BETA-SECRETASE” (EXONHIT THERAPEUTICS SA, priority 2003, published 2010).
Where a name gives a salt, the structure may show the parent alone. Values belong to the compound of their own block, whether it stands above or below them. Square brackets hold non-standard residues; d marks the D form. Peptide text beside a SMILES is read from it. * marks the point of attachment. Sta = CC(C)C[C@H](N)[C@@H](O)CC(=O)O; Isovaleryl = CC(C)CC(=O)*

Columns and labels:
[1] = test system: endogenously expressed APP isoforms in SH-SY5Y cells; assay: Western blot of C99 fragment generation in transfected SH-SY5Y cells; assay type: cell-based, human; settings: BACE455 SH-SY5Y cells
Procedure: SH-SY5Y cells for transfection were grown to 80% confluence in Dulbecco's modified Eagle's medium (DMEM) with 10% fetal bovine serum. Transfections were performed using LipofectAmine Plus (Gibco-BRL) with […] per 10*10<6>cells. Three days posttransfection, cells were passaged into medium containing G418 at a concentration of 400 μg/ml. After twenty days growth in selective medium, individual clones were selected and plated into each well of one 96 well plate containing growth medium plus G418. Clones were expanded from the 96 well plate to a 24 well plate and then to a 6 well plate. Clones which had lost initial neuronal-like morphology were not amplified. BACE455 or BACE501 expression in selected clones was assayed by Western Blotting and immunohistochemical analysis using Cterminal-specific antibody.
Cells were harvested 3 days after plating. Cells were washed twice with PBS and lysed in 1 ml CellLytic solution (Sigma) plus protease inhibitors cocktail (Roche Diagnostics) for 15 min. […] Following electrotransfer of the separated polypeptides to PVDF membranes, APP and C99 proteolytic fragment were detected with C-terminal-specific rabbit anti-APP antibody (Serotec, UK) at 1/500 in PBS-Tween 20 0.1%, and the antibody-antigen complexes were visualized using alkaline phosphatase conjugated goat anti-rabbit antibodies (1/5000). […]

BACE455 = target: T1, BACE455 (Homo sapiens, UniProt P56817, DEL190-235); assay: beta-secretase fluorogenic assay (Substrate V) with membrane extracts of HEK293-BACE455 cells plus protease inhibitors; assay type: biochemical; settings: for inhibition at 100 µM / Percentage of BACE455 inhibition by various inhibitors (mean percentage of cleavage inhibition): BACE455 cell extract; for inhibition at 100 µM / Percentage of BACE455 inhibition by various inhibitors (mean percentage of cleavage inhibition) / effect on substrate cleavage activity of BACE455 extracts (in words): inhibitor 100 μM; for inhibition at 100 µM: read-out: Percentage of BACE455 inhibition by various inhibitors (mean percentage of cleavage inhibition); for BACE455 activity (percentage of activity +−SEM): compared to mock transfected control; for % Inhibition of BACE activity by Inhibitor III: BACE455, 100 μM
T1 construct: full length cDNA of BACE501 and BACE455 in TOPO TA vector were subcloned into pcDNA3; expressed in transfected cells; Triton X100 membrane extract
T1 sequence (P56817 with tags, fused parts or gaps DEL190-235): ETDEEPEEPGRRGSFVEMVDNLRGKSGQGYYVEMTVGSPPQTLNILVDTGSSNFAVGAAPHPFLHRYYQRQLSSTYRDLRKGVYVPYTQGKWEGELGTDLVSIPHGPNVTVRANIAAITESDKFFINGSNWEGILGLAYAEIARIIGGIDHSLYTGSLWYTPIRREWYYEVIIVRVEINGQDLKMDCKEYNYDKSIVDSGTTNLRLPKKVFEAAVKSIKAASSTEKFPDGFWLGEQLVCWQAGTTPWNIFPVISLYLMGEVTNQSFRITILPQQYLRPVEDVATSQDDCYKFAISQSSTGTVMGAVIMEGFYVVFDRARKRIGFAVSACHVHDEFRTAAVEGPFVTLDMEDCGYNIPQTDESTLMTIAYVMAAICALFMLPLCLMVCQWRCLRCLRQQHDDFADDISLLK
Procedure: (§1) Cells were harvested and centrifuged at 1,500 rpm for 5 minutes to remove the medium. The cell pellets were washed once with PBS. To further compare BACE455 activity with that of BACE501, an in vitro assay was developed based on quenched fluorogenic substrate (Substrate V, Calbiochem) containing the Swedish mutation KM->NL in APP. Sequence of the peptide was: MCA-[…](DNP)-CONH2 (SEQ ID NO: 32), containing the Swedish APP mutation (in boldface), γ-amino-4-methyl coumarin (MCA) as the fluorophore and dinotrophenol (DNP) as the quencher. When cell lysates of BACE455 and BACE501 expressing cells are incubated with the fluorogenic Substrate V, upon cleavage by the protease, the fluorophore is separated from the quenching group, restoring the full fluorescence yield of the donor. (Ermolief et al., Biochemistry 39: 12450-12456 (2000); Ellerby et al. J. Neurosci. 17: 6165-6178 (1997); Capel et al., J Biol. Chem. 277: 5637-43 (2002)).
(§2) Mock transfected HEK293 and HEK293-BACE455 and -BACE501cells were harvested by scraping in ice-cold 20 mM Tris/150 mM NaCl, pH 7.5 plus Complete Protease Inhibitor Cocktail (Roche Diagnostics). Cell were lysed by repeated freeze-thawing and a postnuclear fraction was generated after centrifugation at 500 g for 10 min, Pellets were resuspended in membrane extraction buffer (20 mM MES/1% Triton X100) containing protease inhibitor cocktail and incubated on ice for 30 minutes. The assay was carried out in black 96 well plates (ATGC) in a volume of 200 μl of the membrane preparation diluted in reaction buffer (25 mM MES/25 mM Sodium Acetate/25 mM Tris, pH 4.4) containing 15 μM peptide Substrate V. These components were equilibrated to 37[deg.] C. for various times and the reaction initiated by addition of substrate. Excitation was performed at 320 nm and the reaction kinetics were monitored by measuring the fluorescence emission at 420 nm. To test the effect of pH, lysed cells were resuspended in 25 mM MES/25 mM Sodium Acetate/25 mM Tris adjusted at pH values ranging from 4.4 to 8 and then incubations were performed as above. Controls included purified recombinant human BACE501 protein (R&D Systems), or substrate alone and background fluorescence is subtracted to recorded BACE isoforms activities.
(§3) Protease inhibitors were added to 100 μl reaction buffer (25 mM MES/25 mM Sodium Acetate/25 mM Tris, pH 4.4) at a final concentration of 100 μM. […] Membrane preparations were obtained as in Example 4 and incubated with the inhibitors for 10 min at room temperature. Reaction was then started by adding 100 μl of reaction buffer containing the substrate (15 μM final concentration) and monitored as described in Example 4. For the dose-response experiment of FIG. 3, Inhibitor III was assayed at various concentrations ranging from 100 μM to 100 nM
(§4) Membrane preparations were obtained as in Example 4 and incubated in assay buffer (25 mM MES/25 mM Sodium Acetate/25 mM Tris) adjusted to final pH ranging from 4.4 to 8, in the presence or absence of BACE inhibitor III (100 μM final concentration). Reaction was started by adding 100 μl of reaction buffer (pH ranging from 4.4 to 8) containing the substrate (15 μM final concentration) and monitored as described in Example 4. We determined in these conditions the percentage of inhibition of BACE by Inhibitor III.

BACE501 = target: T2, BACE501 (Homo sapiens, UniProt P56817); assay: beta-secretase fluorogenic assay (Substrate V) with membrane extracts of HEK293-BACE501 cells plus protease inhibitors; assay type: biochemical; settings: for inhibition at 100 µM / Percentage of inhibition by various inhibitors (mean percentage of cleavage inhibition), BACE501: BACE501 cell extract; for inhibition at 100 µM / Percentage of inhibition by various inhibitors (mean percentage of cleavage inhibition), BACE501 / effect on substrate cleavage activity of BACE501 extracts (in words): inhibitor 100 μM; for inhibition at 100 µM: read-out: Percentage of inhibition by various inhibitors (mean percentage of cleavage inhibition), BACE501; for BACE501 activity (percentage of activity +−SEM): compared to mock transfected control; for % Inhibition of BACE activity by Inhibitor III: BACE501, 100 μM
T2 construct: full length cDNA of BACE501 and BACE455 in TOPO TA vector were subcloned into pcDNA3; expressed in transfected cells; Triton X100 membrane extract
T2 sequence (P56817 46-501): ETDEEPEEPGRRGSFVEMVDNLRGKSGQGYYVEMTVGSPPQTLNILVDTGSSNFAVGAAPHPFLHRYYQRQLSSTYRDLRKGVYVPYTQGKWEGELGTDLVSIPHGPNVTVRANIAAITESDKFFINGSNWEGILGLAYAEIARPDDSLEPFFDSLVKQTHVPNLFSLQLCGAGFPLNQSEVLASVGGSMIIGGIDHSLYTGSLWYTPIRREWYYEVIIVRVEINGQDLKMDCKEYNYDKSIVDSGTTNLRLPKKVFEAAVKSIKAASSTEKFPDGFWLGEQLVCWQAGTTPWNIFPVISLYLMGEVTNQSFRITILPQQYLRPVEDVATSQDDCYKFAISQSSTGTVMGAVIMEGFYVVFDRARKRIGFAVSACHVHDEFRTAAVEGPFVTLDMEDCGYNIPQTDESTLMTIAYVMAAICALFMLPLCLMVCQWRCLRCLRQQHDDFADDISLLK
Procedure: as §1, §2, §3, §4

[2] = test system: endogenously expressed APP in SH-SY5Y cells; assay: Aβ1-40 double antibody sandwich ELISA on conditioned medium of transfected SH-SY5Y cells; assay type: cell-based, human; settings: Gleevec treatment of BACE455 cells
Procedure: Cells were harvested 3 days after plating and processed for Western Blotting experiments as described above.
Cell culture supernatants harvested 72 hours after plating were analyzed in a standard double antibody isoform-specific Aβ1-40 ELISA (BioSource International) as follows. […] The detecting antibody is specific for Abeta 1-40 and the conjugated secondary antibody is an anti-rabbit IgG conjugated to horseradish peroxydase. Synthetic human Aβ1-40 standard peptides are serially diluted in the supplied sample diluent for the generation of standard curves.
Human Abeta 1-40 standards were added after washing the plate, as well as 100 μl/well of sample, e.g., conditioned medium of transfected cells. The plate was incubated at 4[deg.] C. overnight. The next day, after washing the plate four times, 100 μl/well rabbit detection antibody was added and incubated for 2 hours on an orbital plate shaker at 20 degree C. […] 100 μl/well stop solution was added and absorbance of each well was read at 450 nm within two hours, with a solution of 100 μl each of chromogen and stop solution as the blank. […] The samples with absorbance values falling within the standard curve were extrapolated (by comparison to the values obtained for the A-β40 and A-β42 standard peptides analyzed on the same plate) from the standard curves and expressed in pg/ml culture medium.

Compound: C[C@H]1CCC/C=C/[C@@H]2C[C@H](O)C[C@H]2[C@H](O)/C=C/C(=O)O1 [BFA, brefeldin A]
generation of C99 ([1]; 10 μg/ml during the last 8 hours): reduced generation of C99

Compound: CC(C)C[C@H](NC(=O)[C@@H](NC(=O)N[C@@H](Cc1ccccc1)C(=O)O)[C@@H]1CCN=C(N)N1)C(=O)N[C@H](C=O)Cc1ccccc1 [Chymostatin]
inhibition at 100 µM (BACE455; pH 4.4): 25.9%
inhibition at 100 µM (BACE501; pH 4.4): 20.4%

Percentage of BACE455 inhibition by various inhibitors (mean percentage of cleavage inhibition) (BACE455; pH 4.4): 12.23%
Percentage of inhibition by various inhibitors (mean percentage of cleavage inhibition), BACE501 (BACE501; pH 4.4): 13.14%
Compound: CC(C)CCNC(=O)[C@H](CC(C)C)NC(=O)[C@H]1O[C@@H]1C(=O)O [E-64c, E64c]

Compound: Cc1ccc(NC(=O)c2ccc(CN3CCN(C)CC3)cc2)cc1Nc1nccc(-c2cccnc2)n1 [Gleevec, imatinib mesylate]
Aβ1-40 release (in words) [2]: strongly reduced
generation of C99 peptide ([1]; 10 μM for the last 24 hours): strongly reduced

Compound: CC(=O)N[C@@H](CC(C)C)C(=O)N[C@@H](CC(C)C)C(=O)N[C@H](C=O)CCCNC(=N)N [Leupeptin]
inhibition at 100 µM (BACE455; pH 4.4): 17.3%
inhibition at 100 µM (BACE501; pH 4.4): 8.03%

inhibition at 100 µM (BACE455; pH 4.4): 14.4%
effect on substrate cleavage activity of BACE455 extracts (in words) (BACE455): very weakly sensitive
inhibition at 100 µM (BACE501; pH 4.4): 13.1%
effect on substrate cleavage activity of BACE501 extracts (in words) (BACE501): very weakly sensitive
Compound: CC(C)CC(=O)N[C@H](C(=O)N[C@H](C(=O)N[C@@H](CC(C)C)[C@@H](O)CC(=O)N[C@@H](C)C(=O)N[C@@H](CC(C)C)[C@@H](O)CC(=O)O)C(C)C)C(C)C [Pepstatin A] (Isovaleryl-VV[Sta]A[Sta]-OH)

BACE455 activity (percentage of activity +−SEM) (BACE455; 1 μM inhibitor): 57.52+−9.08%
BACE455 activity (percentage of activity +−SEM) (BACE455; 10 μM inhibitor): 36.04+−4.13%
% Inhibition of BACE activity by Inhibitor III (BACE455; pH 4.4): 104.16%
% Inhibition of BACE activity by Inhibitor III (BACE455; pH 6.0): 15.97%
% Inhibition of BACE activity by Inhibitor III (BACE455; pH 8.0): 22.10%
Percentage of BACE455 inhibition by various inhibitors (mean percentage of cleavage inhibition) (BACE455; pH 4.4): 104.16%
effect on substrate cleavage activity of BACE455 extracts (in words) (BACE455): completely abolished
BACE501 activity (percentage of activity +−SEM) (BACE501; 1 μM inhibitor): 85.15+−2.93%
BACE501 activity (percentage of activity +−SEM) (BACE501; 10 μM inhibitor): 57.6+−3.12%
% Inhibition of BACE activity by Inhibitor III (BACE501; pH 4.4): 117.54%
% Inhibition of BACE activity by Inhibitor III (BACE501; pH 6.0): 13.23%
% Inhibition of BACE activity by Inhibitor III (BACE501; pH 8.0): 17.63%
Percentage of inhibition by various inhibitors (mean percentage of cleavage inhibition), BACE501 (BACE501; pH 4.4): 117.54%
effect on substrate cleavage activity of BACE501 extracts (in words) (BACE501): completely abolished
Compound: H-Glu-Val-Asn-Statine-Val-Ala-Glu-Phe-NH2 [Inhibitor III]
